For the data set, the target named is RNA polymerase II;RECQL5;CSB;CSA-DDB1;UVSSA;ELOF1 (Sus scrofa domesticus?;Homo …, UniProt A0A8D1DPV6;A0A0B8RVL1;P19387;O15514;I3LSI7;P61218;P62487;P52434;P36954;P52435;P6 …, |||||). Nature of the data set: cryo-EM; 1 mM ADP; phosphorylated Pol II; glutaraldehyde cross-linked; 3.5 A; EMSA: 20 mM HEPES pH 7.5, 66 mM NaCl, 5% glycerol, 1 mM DTT, 0.25 mg/ml BSA, on ice 30 min; 6% gel, 0.5x TBE, 4 C. The conditions noted are these: protein: native;recombinant;recombinant;recombinant;recombinant;recombinant; copies: 1;1;1;1;1;1;1;1;1;1;1;1;1;1;1;1;1;1; 15-nt mismatch bubble; RNA 45 nt, 3' end hybridized to template.

The values that follow come from publication PMC12440807.

B1: EC-TCR DNA-RNA scaffold (mixed)
DNA 1: CGCTCTGCTCCTTCTCCCATCCTCTCGATGGCTATGAGATCAACTAG
DNA 2: CTAGTTGATCTCATATTTCATTCCTACTCAGGAGAAGGAGCAGAGCG
RNA: ACAUCAUAACAUUUGAACAAGAAUAUAUAUACAAAAUCGAGAGGA
B1: the binding result is “binds”.
